Paper doi:10.1101/713677

Biological target: zip (positive control of the BACTH system)
Test: two-hybrid

## zip (positive control of the BACTH system) (domain or fragment)
  β-galactosidase activity: 63300 Miller units
